Target: TRAIL receptors (TRAILR) on tumor cells
Assay: flow cytometry, Colo205 cells

scTRAIL3-…, sequence (P50591 other isoform, or with tags, fused parts or gaps): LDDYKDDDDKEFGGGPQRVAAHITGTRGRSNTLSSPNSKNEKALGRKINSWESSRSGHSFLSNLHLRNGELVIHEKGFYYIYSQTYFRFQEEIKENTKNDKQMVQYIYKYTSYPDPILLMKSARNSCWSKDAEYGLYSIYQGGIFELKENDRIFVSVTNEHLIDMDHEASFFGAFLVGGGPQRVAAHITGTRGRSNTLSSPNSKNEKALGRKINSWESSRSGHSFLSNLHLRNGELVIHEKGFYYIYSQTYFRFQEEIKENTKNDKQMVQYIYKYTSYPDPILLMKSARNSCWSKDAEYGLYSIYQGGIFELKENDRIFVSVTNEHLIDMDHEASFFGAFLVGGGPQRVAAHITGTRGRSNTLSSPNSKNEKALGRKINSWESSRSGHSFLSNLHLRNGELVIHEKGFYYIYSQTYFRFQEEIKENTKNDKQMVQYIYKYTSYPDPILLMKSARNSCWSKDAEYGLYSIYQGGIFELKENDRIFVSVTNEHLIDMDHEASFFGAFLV

- EC50: 5.67 nM
Substance: scTRAIL3-… (from UniProt P50591 118-281) (ligand)
